Assay results as given in patent US20240059769A1 (BIOLOJIC DESIGN, published 2024).
Where two headings read alike, the source gives them in different places.

How the values were obtained:
recombinant human IL-13 [1] = biological target: T1, recombinant human IL-13 (human, UniProt P35225 35-146); assay: SPR (Biacore T200), antibody captured, hIL-13 as analyte 0.35-8.89 nM
T1 construct: also called rh-IL-13; hIL-13

hTSLP-His [2] = biological target: T2, hTSLP-His (human, UniProt Q969D9 29-159, limits assumed); assay: competition ELISA: antibody titrated and pre-incubated with 7 nM TSLP-His, then on a plate coated with 33.001 (Tezepelumab), anti-His detection; row head on the sheet reads EC50, unit from the axis
T2 construct: bought; also called hTSLP (ACROBiosystems TSP-H52Hb); not shown: His tag

hTSLP-His [3] = biological target: T2, hTSLP-His; assay: cell-based or functional assay
hTSLP-His [4] = biological target: T2, hTSLP-His; assay: competition ELISA, 7 nM TSLP-His pre-incubated with antibody; competitor Tezepelumab coated
recombinant human IL-13 [5] = biological target: T1, recombinant human IL-13; assay: cell-based or functional assay
human TSLP [6] = biological target: T3, human TSLP (human, UniProt Q969D9 29-159); assay: cell-based or functional assay
recombinant human IL-13 [7] = biological target: T1, recombinant human IL-13; assay: cell-based or functional assay; remark: listed apart in the source
[8] = biological target: T4, cynomolgus monkey (cyno) TSLP (cynomolgus monkey, UniProt A0A7N9CAT7 29-159); assay: SPR
T4 construct: also called cTSLP; cynomolgus TSLP
T4 sequence (A0A7N9CAT7 entry or part of it): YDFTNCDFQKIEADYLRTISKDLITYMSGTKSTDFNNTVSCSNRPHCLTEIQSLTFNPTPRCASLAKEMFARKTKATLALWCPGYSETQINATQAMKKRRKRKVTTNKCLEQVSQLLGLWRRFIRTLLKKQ

[9] = biological target: T5, recombinant cynomolgus monkey IL-13 (cynomolgus monkey, UniProt Q0PW92 21-132); assay: SPR
T5 construct: bought; also called rc-IL-13; cIL-13
T5 sequence (Q0PW92 entry or part of it): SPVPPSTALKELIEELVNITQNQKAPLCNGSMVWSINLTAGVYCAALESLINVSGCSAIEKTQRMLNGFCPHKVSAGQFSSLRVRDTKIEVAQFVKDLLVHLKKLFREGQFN

human TSLP [10] = biological target: T3, human TSLP; assay: SPR (Biacore T200), antibody captured, hTSLP as analyte 0.231-5.926 nM
human TSLP [11] = biological target: T3, human TSLP; assay: SPR
recombinant human IL-13 [12] = biological target: T1, recombinant human IL-13; assay: SPR
hTSLP-His [13] = biological target: T2, hTSLP-His; assay: cell-based or functional assay; remark: listed apart in the source
[14] = biological target: T4, cynomolgus monkey (cyno) TSLP; assay: SPR; remark: listed apart in the source
hTSLP-His [15] = biological target: T2, hTSLP-His; assay: competition ELISA: antibody titrated and pre-incubated with 7 nM TSLP-His, then on a plate coated with 33.001 (Tezepelumab), anti-His detection; row head on the sheet reads EC50, unit from the axis; remark: listed apart in the source
[16] = biological target: T5, recombinant cynomolgus monkey IL-13; assay: SPR; remark: listed apart in the source
human TSLP [17] = biological target: T3, human TSLP; assay: SPR; remark: listed apart in the source
recombinant human IL-13 [18] = biological target: T1, recombinant human IL-13; assay: SPR; remark: listed apart in the source
human TSLP [19] = biological target: T3, human TSLP; assay: SPR (Biacore T200), antibody captured, hTSLP as analyte 0.231-5.926 nM; remark: listed apart in the source
recombinant human IL-13 [20] = biological target: T1, recombinant human IL-13; assay: SPR (Biacore T200), antibody captured, hIL-13 as analyte 0.35-5.93 nM
hTSLP-His [21] = biological target: T2, hTSLP-His; assay: competition ELISA: antibody titrated and pre-incubated with 7 nM TSLP-His, then on a plate coated with 33.001 (Tezepelumab), anti-His detection; row head on the sheet reads EC50, unit from the axis; remark: listed apart in the source

T1 sequence (P35225 35-146 limits assumed): as the sequence (Q0PW92 entry or part of it) above, with S1G, K10R, V42M, N67S, R83H, V100L counted along it

| Binder | IC50 [pM], STAT5 phosphorylation inhibition in MUTZ5 cells (hTSLP-His [3]) | IC50 (hTSLP-His [4]) | HEK-IL-13 [nM] (IC50, STAT6 reporter) (recombinant human IL-13 [5]) | IC50 TARC (human TSLP [6]) | IC50 CD23 (recombinant human IL-13 [7]) | Kd [8] | koff [8] | kon [8] | Kd [9] | koff [9] | kon [9] | Kd (human TSLP [11]) | koff (human TSLP [11]) | kon (human TSLP [11]) | Kd (recombinant human IL-13 [12]) | koff (recombinant human IL-13 [12]) | kon (recombinant human IL-13 [12]) | IC50, pSTAT5 in MUTZ-5 cell line (hTSLP-His [13]) | IC50 (hTSLP-His [15]) | Kd (human TSLP [17]) | other results |
| --- | --- | --- | --- | --- | --- | --- | --- | --- | --- | --- | --- | --- | --- | --- | --- | --- | --- | --- | --- | --- | --- |
| BDG38.079 (antibody, V domains shown) VH: QMQLVESGGGVVQPGRSLRLSCAASGFAFRTYGMHWVRQAPGKGLEWVAVIWYDGSNTHYADSVKGRFTITRDNSKNTLNLQMNSLRAEDTAVYYCVRAPQWYLTAEAFDLWGQGTMVTVSS VL: SYVLTQPPSVSVAPGETATITCGGNMIGGYLVHWYQQKPGQAPLLVIYDDVDRPDRIPERFSGSNSGNTATLTISRVEAGDEADYYCQVWDHDSNTMVFGGGTKLTVL | 21.8 pM | 3.63 nM | 0.0253 nM | 1.96 nM | 0.0718 nM | 0.00397 nM | 4.08e-05 s⁻¹ | 1.03e+07 M⁻¹ s⁻¹ | 0.901 nM | 0.0141 s⁻¹ | 1.56e+07 M⁻¹ s⁻¹ | 0.00221 nM | 3.27e-05 s⁻¹ | 1.48e+07 M⁻¹ s⁻¹ | 0.0317 nM | 0.000385 s⁻¹ | 1.22e+07 M⁻¹ s⁻¹ | ~13 pM |  |  | Kd (recombinant human IL-13 [1]): 0.0317 nM; koff (recombinant human IL-13 [1]): 0.000385 s⁻¹; kon (recombinant human IL-13 [1]): 1.22e+07 M⁻¹ s⁻¹; IC50 (hTSLP-His [2]): 3.63 nM; Kd (human TSLP [10]): 0.00221 nM; koff (human TSLP [10]): 3.27e-05 s⁻¹; kon (human TSLP [10]): 1.48e+07 M⁻¹ s⁻¹ |
| BDG38.081 (antibody, V domains shown, IgG1) VH: QMQLVESGGGVVQPGRSLRLSCAASGFAFRTYGMHWVRQAPGKGLEWVAVIWDDGSNTHYADSVKGRFTITRDNSKNTLNLQMNSLRAEDTAVYYCVRAPQWYLTAEAFDLWGQGTMVTVSS VL: SYVLTQPPSVSVAPGQTARITCGGNMIGAYLVHWYQQKPGQAPLLVIYDDVDRPDRIPERFSGSNSGNTATLTISRVEAGDEADYYCQVWDHNTQQMVFGGGTKLTVL | 38.7 pM | 2.2 nM | 0.0483 nM | 5.93 nM | 0.0339 nM |  |  |  |  |  |  |  |  |  |  |  |  |  | 2.21 nM | 0.0692 nM | Kd [14]: 0.00487 nM; koff [14]: 4.36e-05 s⁻¹; kon [14]: 8.96e+06 M⁻¹ s⁻¹; Kd [16]: 0.844 nM; koff [16]: 0.00675 s⁻¹; kon [16]: 8e+06 M⁻¹ s⁻¹; koff (human TSLP [17]): 0.000125 s⁻¹; kon (human TSLP [17]): 1.81e+06 M⁻¹ s⁻¹; Kd (recombinant human IL-13 [18]): 0.0509 nM; koff (recombinant human IL-13 [18]): 0.000872 s⁻¹; kon (recombinant human IL-13 [18]): 1.71e+07 M⁻¹ s⁻¹ |
| BDG38.074 (antibody, V domains shown, also called BDG38.74) VH: QMQLVESGGGVVQPGRSLRLSCAASGFAFRTYGMHWVRQAPGKGLEWVAVIWDDGSNTHYADSVKGRFTITRDNSKNTLNLQMNSLRAEDTAVYYCVRAPQWYLTAEAFDLWGQGTMVTVSS VL: SYVLTQPPSVSVAPGQTATITCGGNMIGAYLVHWYQQKPGQAPLLVVYDDVDRPNRIPERFSGSNSGNTATLTISRVEAGDEADYYCQVWDHNTDKMVFGGGTKLTVL | 46.7 pM | 3.66 nM | 0.0241 nM | 2.77 nM | 0.158 nM | 0.00416 nM | 4.6e-05 s⁻¹ | 1.11e+07 M⁻¹ s⁻¹ | 0.733 nM | 0.00644 s⁻¹ | 8.78e+06 M⁻¹ s⁻¹ | 0.00334 nM | 5.05e-05 s⁻¹ | 1.51e+07 M⁻¹ s⁻¹ | 0.0295 nM | 0.000249 s⁻¹ | 8.43e+06 M⁻¹ s⁻¹ | ~35 pM |  |  | Kd (human TSLP [19]): 0.00334 nM; koff (human TSLP [19]): 5.05e-05 s⁻¹; kon (human TSLP [19]): 1.51e+07 M⁻¹ s⁻¹; Kd (recombinant human IL-13 [20]): 0.0295 nM; koff (recombinant human IL-13 [20]): 0.000249 s⁻¹; kon (recombinant human IL-13 [20]): 8.43e+06 M⁻¹ s⁻¹; IC50 (hTSLP-His [21]): 3.66 nM |
| BDG38.083 (antibody, V domains shown, IgG1) VH: QMQLVESGGGVVQPGRSLTLSCAASGFEFRTYGMHWVRQAPGKGLEWVGVIWDDGSNTHYADSVKGRFTITRDNSKNTLNLQMNSLRAEDTAVYYCARAPQWYLTAEAFDLWGQGTMVTVSS VL: SYILTQPPSVSVAPGQTATITCGGNLIGAKLVHWYQQKPGQAPVLVIYDDSDRPSRIPERFSGSNIGNTATLTISDVEEGDEADYYCQVWDYSSDTMVFGGGTKLTVL |  | 3.33 nM | 0.0419 nM | 11.4 nM | 0.0215 nM |  |  |  |  |  |  |  |  |  |  |  |  |  | 3.33 nM | 0.0983 nM | koff (human TSLP [17]): 0.000241 s⁻¹; kon (human TSLP [17]): 2.45e+06 M⁻¹ s⁻¹; Kd (recombinant human IL-13 [18]): 0.0565 nM; koff (recombinant human IL-13 [18]): 0.000401 s⁻¹; kon (recombinant human IL-13 [18]): 7.09e+06 M⁻¹ s⁻¹ |
